Results from paper PMC9537531, “DNA-delivered antibody cocktail exhibits improved pharmacokinetics and confers prophylactic protection against SARS-CoV-2” (Nature Communications, 2022).
Where “and” joins values, the source holds several entries; their conditions need not be identical. Equal values may be shown once.

Target: T1, SARS-CoV-2 6P spike ectodomain peplomer (USA-WA1/2020; 6P stabilization) (SARS-CoV-2 USA-WA1/2020 (MN985325), stabilised)
T1 construct: also called stabilized spike trimer; spike peplomer
Assay: cryo-EM structure
Conditions: both partners purified

Binder	stoichiometry N
2130 dFab, DNA-encoded Fab obtained from serum-derived DMAb 2130 TM(m3) (Fab, V domains shown, also called dFab 2130) VH: EVQLVESGGGLVKPGGSLRLSCAASGFTFRDVWMSWVRQAPGKGLEWVGRIKSKIDGGTTDYAAPVKGRFTISRDDSKNTLYLQMNSLKTEDTAVYYCTTAGSYYYDTVGPGLPEGKFDYWGQGTLVTVSS VL: not shown	3 dFabs per spike trimer
2196 dFab, DNA-encoded Fab obtained from serum-derived DMAb 2196 TM(m3) (Fab, V domains shown, also called dFab 2196; 2196DMAb Fab) VH: QMQLVQSGPEVKKPGTSVKVSCKASGFTFMSSAVQWVRQARGQRLEWIGWIVIGSGNTNYAQKFQERVTITRDMSTSTAYMELSSLRSEDTAVYYCAAPYCSSISCNDGFDIWGQGTMVTVSS VL: not shown	1 dFab per spike trimer and 2 dFabs per spike trimer and 1 copy per RBD (all three RBDs)
